Patent publication US20210246166A1 (Bayer, published 2021)
Bridge positions count the residues as written; N and C are the ends. Square brackets hold non-standard residues; d marks the D form. Ends that are not written are not given here. Oic = O=C(O)[C@@H]1C[C@@H]2CCCC[C@@H]2N1; Phe(2-Br) = N[C@@H](Cc1ccccc1Br)C(=O)O; tBuAla = CC(C)(C)C[C@H](N)C(=O)O; Pen = CC(C)(S)[C@H](N)C(=O)O; NMeA = CN[C@@H](C)C(=O)O; Sar = CNCC(=O)O

What was measured:
[1] = molecular target: T1, recombinant human MASP1 active protease (amino acids 297-699, C-terminal His Tag) (human, UniProt P48740 297-699); test: cell-based or functional assay
T1 sequence: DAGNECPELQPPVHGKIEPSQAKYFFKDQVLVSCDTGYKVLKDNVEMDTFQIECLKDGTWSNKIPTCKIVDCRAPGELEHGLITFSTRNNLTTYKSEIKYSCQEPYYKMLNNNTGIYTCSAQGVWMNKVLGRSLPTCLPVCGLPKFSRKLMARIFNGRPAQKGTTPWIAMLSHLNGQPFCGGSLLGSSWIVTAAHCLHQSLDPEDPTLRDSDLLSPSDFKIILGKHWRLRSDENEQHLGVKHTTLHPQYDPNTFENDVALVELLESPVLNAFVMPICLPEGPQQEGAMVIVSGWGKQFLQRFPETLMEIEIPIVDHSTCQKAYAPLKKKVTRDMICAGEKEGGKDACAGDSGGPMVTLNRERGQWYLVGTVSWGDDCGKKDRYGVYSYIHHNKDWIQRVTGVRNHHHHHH

[2] = molecular target: recombinant human MASP2 active protease (amino acids 297-686, C-terminal His Tag) (human, UniProt O00187 297-686); test: cell-based or functional assay
recombinant human MASP2 active protease (amino acids 297-686, C-terminal His Tag), sequence (O00187 other isoform, or with tags, fused parts or gaps limits assumed): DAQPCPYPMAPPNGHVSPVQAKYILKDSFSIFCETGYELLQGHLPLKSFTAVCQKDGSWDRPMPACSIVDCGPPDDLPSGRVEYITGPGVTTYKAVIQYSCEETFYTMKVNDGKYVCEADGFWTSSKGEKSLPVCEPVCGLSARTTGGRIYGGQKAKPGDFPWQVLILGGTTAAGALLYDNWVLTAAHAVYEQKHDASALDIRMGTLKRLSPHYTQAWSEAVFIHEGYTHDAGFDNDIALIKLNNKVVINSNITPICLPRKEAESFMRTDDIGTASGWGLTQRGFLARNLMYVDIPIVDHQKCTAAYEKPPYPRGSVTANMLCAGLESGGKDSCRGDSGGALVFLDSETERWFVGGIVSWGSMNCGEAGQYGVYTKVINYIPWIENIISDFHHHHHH

B1: ((N-Me)A)-IC+SRSLP-(Oic)-I-(Pen)+IPD-NH2 (peptide)
peptide: [NMeA]ICSRSLP[Oic]I[Pen]IPD-NH2
modifications: disulfide 3-11; N-terminus assumed
SMILES: CC[C@H](C)[C@H](NC(=O)[C@H](C)NC)C(=O)N[C@H]1CSSC(C)(C)[C@@H](C(=O)N[C@H](C(=O)N2CCC[C@H]2C(=O)N[C@@H](CC(=O)O)C(N)=O)[C@@H](C)CC)NC(=O)[C@H]([C@@H](C)CC)NC(=O)[C@@H]2C[C@@H]3CCCC[C@@H]3N2C(=O)[C@@H]2CCCN2C(=O)[C@H](CC(C)C)NC(=O)[C@H](CO)NC(=O)[C@H](CCCNC(=N)N)NC(=O)[C@H](CO)NC1=O
human MASP1 IC50 [1]: 2.8 nM
human MASP2 IC50 [2]: 145 nM

B2: AIC+SRS-((2-Bromo)F)-PPI-(Pen)+IPD-NH2 (peptide)
peptide: AICSRS[Phe(2-Br)]PPI[Pen]IPD-NH2
modifications: disulfide 3-11; N-terminus assumed
SMILES: CC[C@H](C)[C@H](NC(=O)[C@H](C)N)C(=O)N[C@H]1CSSC(C)(C)[C@@H](C(=O)N[C@H](C(=O)N2CCC[C@H]2C(=O)N[C@@H](CC(=O)O)C(N)=O)[C@@H](C)CC)NC(=O)[C@H]([C@@H](C)CC)NC(=O)[C@@H]2CCCN2C(=O)[C@@H]2CCCN2C(=O)[C@H](Cc2ccccc2Br)NC(=O)[C@H](CO)NC(=O)[C@H](CCCNC(=N)N)NC(=O)[C@H](CO)NC1=O
human MASP1 IC50 [1]: 2.8 nM
human MASP2 IC50 [2]: 48 nM

B3: AIC+SRS-((tBu)A)-P-(Oic)-I-(Pen)+IPD-NH2 (peptide)
peptide: AICSRS[tBuAla]P[Oic]I[Pen]IPD-NH2
modifications: disulfide 3-11; N-terminus assumed
SMILES: CC[C@H](C)[C@H](NC(=O)[C@H](C)N)C(=O)N[C@H]1CSSC(C)(C)[C@@H](C(=O)N[C@H](C(=O)N2CCC[C@H]2C(=O)N[C@@H](CC(=O)O)C(N)=O)[C@@H](C)CC)NC(=O)[C@H]([C@@H](C)CC)NC(=O)[C@@H]2C[C@@H]3CCCC[C@@H]3N2C(=O)[C@@H]2CCCN2C(=O)[C@H](CC(C)(C)C)NC(=O)[C@H](CO)NC(=O)[C@H](CCCNC(=N)N)NC(=O)[C@H](CO)NC1=O
human MASP1 IC50 [1]: 2.8 nM
human MASP2 IC50 [2]: 130 nM

B4: PIC+SRS-((tBu)A)-PPI-(Pen)+IPD-NH2 (peptide)
peptide: PICSRS[tBuAla]PPI[Pen]IPD-NH2
modifications: disulfide 3-11; N-terminus assumed
SMILES: CC[C@H](C)[C@H](NC(=O)[C@@H]1CCCN1)C(=O)N[C@H]1CSSC(C)(C)[C@@H](C(=O)N[C@H](C(=O)N2CCC[C@H]2C(=O)N[C@@H](CC(=O)O)C(N)=O)[C@@H](C)CC)NC(=O)[C@H]([C@@H](C)CC)NC(=O)[C@@H]2CCCN2C(=O)[C@@H]2CCCN2C(=O)[C@H](CC(C)(C)C)NC(=O)[C@H](CO)NC(=O)[C@H](CCCNC(=N)N)NC(=O)[C@H](CO)NC1=O
human MASP1 IC50 [1]: 1.14 nM
human MASP2 IC50 [2]: 50 nM

[Sar]ICSRSLP[Oic]I[Pen]IP-NH2 (disulfide 3-11; also: TFA salt) [((N-Me)G)-IC+SRSLP-(Oic)-I-(Pen)+IP-NH2]
human MASP1 IC50 [1]: 2.9 nM
human MASP2 IC50 [2]: 69.6 nM

B5: AIC+SRSLP-(Oic)-I-(Pen)+IPE-NH2 (peptide)
peptide: AICSRSLP[Oic]I[Pen]IPE-NH2
modifications: disulfide 3-11; N-terminus assumed
SMILES: CC[C@H](C)[C@H](NC(=O)[C@H](C)N)C(=O)N[C@H]1CSSC(C)(C)[C@@H](C(=O)N[C@H](C(=O)N2CCC[C@H]2C(=O)N[C@@H](CCC(=O)O)C(N)=O)[C@@H](C)CC)NC(=O)[C@H]([C@@H](C)CC)NC(=O)[C@@H]2C[C@@H]3CCCC[C@@H]3N2C(=O)[C@@H]2CCCN2C(=O)[C@H](CC(C)C)NC(=O)[C@H](CO)NC(=O)[C@H](CCCNC(=N)N)NC(=O)[C@H](CO)NC1=O
human MASP1 IC50 [1]: 2.8 nM
human MASP2 IC50 [2]: 150 nM
